Data on one molecule can be found in US20210009703A1 (TUSK THERAPEUTICS, published 2021).

The target of assay [1] is T1, human CD25 expressed on cells (human, UniProt P01589 22-272).
T1 construct: Endogenous CD25 on human cells; also called CD25 on human in vitro differentiated Treg cells, SU-DHL-1 cells, SR-786 cells and PBMC
T1 sequence: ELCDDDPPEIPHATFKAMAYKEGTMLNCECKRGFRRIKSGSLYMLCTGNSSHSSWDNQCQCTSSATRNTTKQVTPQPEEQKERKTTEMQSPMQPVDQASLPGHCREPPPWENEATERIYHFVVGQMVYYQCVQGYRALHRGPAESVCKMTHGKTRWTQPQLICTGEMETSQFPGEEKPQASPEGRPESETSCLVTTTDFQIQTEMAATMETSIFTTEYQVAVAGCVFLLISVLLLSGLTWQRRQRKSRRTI
Description: flow cytometry on SU-DHL-1 cells, PE anti-human IgG Fc secondary. (In general: A flow cytometer gives signals particle by particle.)
Description: Cells were washed again and resuspended in FACS buffer containing DAPI and acquired on the Intellicyt iQue. Live cells were gated using FSC vs SSC parameters by flow cytometry during sample acquisition. Geo Mean Intensity of stained cells were plotted on an XY chart, graphing Geo Mean Intensity against the log of the concentration, and the data fit to a non-linear regression curve from which the EC50 is calculated.

For assay [2], the target named is T2, recombinant human CD25 his tagged (human, UniProt P01589 22-240).
T2 construct: also called rhCD25-his; rhCD25; not shown: His tag
T2 sequence: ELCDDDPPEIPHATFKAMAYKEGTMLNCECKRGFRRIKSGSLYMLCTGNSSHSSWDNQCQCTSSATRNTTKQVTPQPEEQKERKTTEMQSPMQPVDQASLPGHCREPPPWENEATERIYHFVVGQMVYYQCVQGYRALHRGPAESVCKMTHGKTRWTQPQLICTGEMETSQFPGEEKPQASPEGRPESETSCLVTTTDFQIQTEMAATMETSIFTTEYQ
Description: ForteBio BLI, avidity format: rhCD25-His on Ni-NTA sensors, IgG in solution; IgG in solution, avidity format. (In general: BLI is a label-free optical method that tracks binding on a fibre tip over time.)

B1: aCD25-a-672 (antibody, V domains shown)
VH: QVQLVQSGAEVKKPGSSVKVSCKASGGTFSSYAISWVRQAPGQGLEWMGGIIPIFGTANYAQKFQGRVTITADESTSTAYMELSSLRSEDTAVYYCAREYDYKEDWGQGTLVTVSS
VL: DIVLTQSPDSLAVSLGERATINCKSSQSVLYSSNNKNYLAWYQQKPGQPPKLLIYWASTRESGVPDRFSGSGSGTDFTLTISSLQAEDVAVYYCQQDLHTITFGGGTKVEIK
notes: An afucosylated IgG1 form was also made
Turning to B1, in assay [1], the “EC50 (read off the curve)” value was about 0.2 µg/mL. Moreover, the Kd in assay [2] is 1.2 nM.

For orientation: EC50 (read off the curve) means the concentration giving half of the maximal effect.
